T1: CD134 expressed on the cell surface of HT1080_OX40 cells (human, UniProt P43489 29-277)
T1 sequence (looked up): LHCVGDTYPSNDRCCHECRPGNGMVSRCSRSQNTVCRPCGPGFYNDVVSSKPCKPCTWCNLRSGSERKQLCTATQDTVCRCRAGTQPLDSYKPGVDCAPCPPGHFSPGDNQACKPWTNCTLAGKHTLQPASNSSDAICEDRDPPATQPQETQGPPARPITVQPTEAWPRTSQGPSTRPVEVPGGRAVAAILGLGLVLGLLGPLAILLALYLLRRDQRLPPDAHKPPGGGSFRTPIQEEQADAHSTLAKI

T2: CD134 protein (His-tagged, Sino Biological Inc. 10481-H08H) (human, UniProt P43489 29-216)
T2 construct: bought protein coated on ELISA plates; also called OX40; TNFRSF4; not shown: His tag
T2 sequence (looked up): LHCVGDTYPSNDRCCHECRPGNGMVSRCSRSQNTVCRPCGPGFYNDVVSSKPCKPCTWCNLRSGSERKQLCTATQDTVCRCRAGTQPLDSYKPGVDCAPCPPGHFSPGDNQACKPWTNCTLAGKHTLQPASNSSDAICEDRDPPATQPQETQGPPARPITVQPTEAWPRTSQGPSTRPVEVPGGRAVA


How the values were obtained:
[1] = target: T1, CD134 expressed on the cell surface of …; assay: cell-based or functional assay
[2] = target: T1, CD134 expressed on the cell surface of …; assay: HT1080_OX40 cells, imaging
[3] = target: T2, CD134 protein (His-tagged, Sino …); assay: ELISA, coated His-tagged CD134
Note: test concentration or dose not given here.

Binder	Functional assay Cross-linked by F(ab′)2 fragment IL-8 [1] [abs. corr.]	Functional assay IL-8 [1] [abs. corr.]	Cellular binding assay [RFU] [2] [RFU]	ELISA [abs. corr.] [3] [abs. corr.]
P018.S.11.A.E02 (antibody, V domains shown, V regions on human Ig constant parts; also called AB134_33) VH: QEQLEESGGDLVKPEGSLTLTCTASGFSFNVDYYMCWVRQAPGKGLEWIACIYVGSEGSTYYASWAKGRFTISKTSSTTVTLQMTSLTAADTATYFCARHYAGYAGYNYATDYYFTLWGPGTLVTVSS VL: DIVMTQTPSSVSAGVGGTVTINCQASQSVTNFLSWYQQKPGQPPKLLIYGASTLASGVPSRFKGSGSGTEFTLTISGMKAEDVATYYCQSGYYSATFGAGTKVEIK	2.04	0.214	525	2.65
P018.S.11.A.B03 (antibody, V domains shown, V regions on human Ig constant parts; also called AB134_24) VH: QSLEESGGRLVTPGTPLTLTCTVSGFSLSNYAMSWVRQAPGKGLEWIAIISGSGSTNYASWAKGRFTLSKASTTVALKITSPTTEDTATYFCGRGRDDDYAWDLWGQGTLVTVSS VL: DVVMTQTPASVSEPVGGTVTIKCQASQTISNYLAWYQQKPGQPPKLLIYAASTLASGVSSRFRGSGSGTEFSLTISDLESADAATYYCHCTYYDSSYHGFGGGTEVVVK	2.1	-0.075	527	2.66
P018.S.12.A.B06 (antibody, V domains shown, V regions on human Ig constant parts; also called AB134_60) VH: QEQLEESGGGLVQPEGSLTLTCTASGFSFSYYWMCWVRQAPGKGLEWSACIGTGSGSTYYATWAKGRFTISKTSSTTVTLQMTSLTAADTATYFCARDWGIYSSDAYYMDYFNLWGPGTLVTVSS VL: AFELTQTPASVEAAVGGTVTIKCQASQSIGSYLAWYQQKPGQPPKPLIYEASKLASGVSSRFKGSGSGTQFTLTISGVESADAATYYCQQGGISTNVQNAFGGGTEVVVK	2.07	1.84	451	1.4
P018.S.12.A.A06 (antibody, V domains shown, V regions on human Ig constant parts; also called AB134_55) VH: QSVEESGGRLVTPGTPLTLTCTVSGFSLSSFAMTWVRQAPGKGLEWIGIISSSGTTYYASWAKGRFTISKTSTTVDLRITSPTTEDTATYFCASHYDDYGDSDALDPWGPGTLVTVSS VL: AAVMTQTPSPVSAAVGGTVTINCQASEDIYSNLAWFQQKPGQPPKLLIYRASTLASGVPSRFSGSGSGTEFTLTISGLQSDDAATYYCLGVDRHISDRAFGGGTEVVVK	2.04	0.062	515	1.61
P018.S.12.A.E05 (antibody, V domains shown, V regions on human Ig constant parts; also called AB134_76) VH: QSVEESGGRLVTPGGSLTLTCTASGFDLSSYATSWVRQAPGKGLEWIGIIYGSGSTTYASWVKGQFTISKSSSTTVDLKMTSLTTEDTATYFCARGLVASTDNYNLWGPGTLVTVSS VL: AAVLTQTPSPVSVAVGGTVTINCQASQSVYNNNYLAWFQQKPGQPPKLLIYLASILASGVPSRFKGSGSGTQFTLTINGVQSDDAATYYCLGDVGGGERVFGGGTEVVVK	2.11	0.132	523	1.93
P018.S.11.A.B06 (antibody, V domains shown, V regions on human Ig constant parts; also called AB134_27) VH: QSVEESGGRLVTPGTPLTLTCTASGFSLINYNMGWVRQAPGEGLEWIGTILTDGTVYYSNWAKGQFTISKTSTTVDLEMTSPTNEDTATYFCARDYPSYIAFDLWGPGTLVTVSS VL: AQVLTQTASSVSAAVGGTVTINCQASQSVYNDDNLAWLQQKPGQPPKLLIYGASSLASGVPSRFSGSGSGTEFTLTISGVQSEDAAIYYCQGGGFSSGWYWAFGGGTEVVVK	2.1	0.403	441	2.13
P018.S.12.A.B01 (antibody, V domains shown, V regions on human Ig constant parts; also called AB134_56) VH: QEQLVESGGGLVQPEGSLTLTCKASGFDFSYNSMCWVRQAPGKGLEWITCIYNGDGSTWYASWAKGRFTISKTSSTTVTLQMTSLTAADTATYFCTRDFGLWGPGTLVTVSS VL: ALVMTQTPSSTSEPVGGTVTINCQASESVANHKQLSWYQQKPGQPPKVLIYYASTLASGVPSRFKGSGSGTQFTLTISDVVSDDAATYYCSGYKSISTDGNAFGGGTEVVVK	2.11	0.396	607	2.34
P018.S.12.A.B03 (antibody, V domains shown, V regions on human Ig constant parts; also called AB134_58) VH: QSLEESGGRLVTPGTPLTLICTVSGIDLSSGAMGWVRQAPGKGLEYIGYIYTGSGTTSYASWVNGRFTISMTSTTVDLKITSPTTEDTATYFCARDAASSYWGHFTLWGQGTLVTVSS VL: DIVMTQTPASVEAAVGGTVTIKCQASENIYSSLAWYQQKPGQPPKLLIYRTSTLASGVPSRFKGSGSGTQFTLTISDLESDDAATYYCQSYYHNSGGGYDYGFGGGTEVVAK	2.05	1.07	446	1.18
P018.S.12.A.C06 (antibody, V domains shown, V regions on human Ig constant parts; also called AB134_66) VH: QSVEESGGRLVKPDETLTLICTVSGIDLSINVVGWVRQAPGEGLEWIGDISSHGDTIYATWAKGRFTISKTSTTVDLKMTSLTASDTATYFCARYVGDGYYDLWGPGTLVTVSS VL: AYDMTQTPASVSAAVGGTVTINCQASQSISNLLAWYQQKPGQRPKLLIYDTSKLASGVPSRFKGSGSGTQFTLTISDLESADAATYYCQQSYSSSNIANLFGGGTEVVVK	2.1	0.881	525	2.35
P018.S.12.A.E01 (antibody, V domains shown, V regions on human Ig constant parts; also called AB134_72) VH: QSVEESGGRLVTPGGSLTLTCTVSGIDLSSADMSWVRQAPGEGLEYIGWINNVGSAYYASWAKGRFSISKTSSTTVDLKVTSLTTEDTATYFCVRGYWLDLWGQGTLVTVSS VL: AAVLTQTPSPVSAAVGGTVSISCQSSVNVYNNNYLAWFQQKPGQPPKLLIYAASTLPSGVSSRFSGNGSGTEFTLTISGVQSDDAATYYCVGYYSSTDDNGFGGGTEVVVK	2.04	0.439	463	2.55
P018.S.11.A.A03 (antibody, V domains shown, V regions on human Ig constant parts; also called AB134_20) VH: QSLEESGGDLVKPGASLTLPCTASGFTLSGYWMCWVRQAPGKGLEWIGCIYNGDGSTYYASWAKGRFTISKTSSTTVTLQMTSLTAADTATYFCARDSNGWGAYGLWGPGTLVTVSS VL: AIEMTQTPSSVSAAVGGTVTIDCQASQSIGSYLSWYQQKPGQPPKLLIYDASDLASGVPSRFSGSGSGTEFTLTISGVQSDDAATYYCQGGYYSSATEIAFGGGTEVVVK	2.01	1.38	459	1.93
P018.S.12.A.F06 (antibody, V domains shown, V regions on human Ig constant parts; also called AB134_82) VH: QSLEESGGDLVKPGGTLTLTCKASGIDFNNYYVCWVRQAPGKGLEWVGCIYTGSGSTYYASWAKGRFTITRSSSTTVTLQMTSLTAADTATYFCARPEFYDTYGYAGYGYATPNYFNFWGPGTLVTVSS VL: AAVLTQTPSPVSAAVGGTVTIKCQASQSVYNNNLLSWYQQKPGQPPKLLMYDASNLASGVPDRFSGSGSGTQFTLTISDLESDDAATYYCLGGYDDDADYNAFGGGTEVVVA	2.05	0.374	500	1.65
P018.S.12.A.G03 (antibody, V domains shown, V regions on human Ig constant parts; also called AB134_85) VH: QSLEESGGRLVTPGGSLTLTCTLSGIDLSSNAISWVRQAPGKGLEWIGIIFPGDNIYYATWAKGRFTISKTSTTVDLKMTSLRTADTATYFCARYHADDSVDLWGPGTLVTVSS VL: AYDMTQTPASVSEPVGGTVTIKCQASQSINGWLSWYQQKPGQRPRLLIYRASDLAPGVSSRFKGSGSGTQFTLTISDVESADAATYYCHLGDIYSNIDYVFGGGTEVVVK	2.1	0.209	452	2.52
P018.S.11.A.G05 (antibody, V domains shown, V regions on human Ig constant parts; also called AB134_45) VH: QSLEESGGDLVKPGASLTLTCAASGFSLNNWVMCWVRQAPGKGLEWIACIDIVGSGSTHYATWAKGRFTMSKASSITVTLQMTSLTAADTATYFCARGVNGDGNLNLWGPGTLVTVSS VL: DVVMTQTPASVSEPVGGAVTIKCQASETISNYLAWYQQKPGQRPKLLIYGASNLESGVPSRFKGSGSGTEFTLTISDLESADAATYYCQCTYVGDSYTAFGGGTEVVVK	2.05	0.031	531	2.36

— patent publication US20210253725A1 (BIONTECH, published 2021)
